Laboratory results as given in the Human Domainome abundance scans (Beltran et al. 2025).
± gives the uncertainty stated by the source.

B1: Far upstream element-binding protein 1, residues 184 to 257; numbered along this chain, Q96AE4 (parent)
chain: GNAVQEIMIPASKAGLVIGKGGETIKQLQERAGVKMVMIQDGPQNTGADKPLRITGDPYKVQQAKEMVLELIRD

Variants of: B1
Assay: abundance fitness (aPCA) (normalised: wild type 0, dead -1); higher = more abundant; growth selection in yeast, the domain comes from the species named
Conditions: Homo sapiens

Variant	abundance fitness
Y59R	0.032 ± 0.025
Y59E	0.009 ± 0.032
I54N	-1.22 ± 0.15
I54H	-1.03 ± 0.12
I72Y	-0.276 ± 0.044
I72S	-0.301 ± 0.032
P43Q	-0.057 ± 0.045
P43C	-0.049 ± 0.051
K26F	-0.129 ± 0.054
L16N	-0.103 ± 0.052
L16T	-0.058 ± 0.033
G22Q	-0.075 ± 0.04
G22I	-0.417 ± 0.06
G22H	-0.127 ± 0.057
G22V	-0.261 ± 0.034
G22Y	-0.237 ± 0.055
T24G	-0.008 ± 0.027
T24F	-0.101 ± 0.063
T24Y	-0.116 ± 0.054
S12Y	-0.13 ± 0.049
S12E	-0.016 ± 0.034

Variant	abundance fitness
S12L	-0.112 ± 0.031
I25G	-0.624 ± 0.032
I25T	-0.361 ± 0.039
I25K	-0.371 ± 0.045
A32R	-0.367 ± 0.031
M38V	-0.007 ± 0.031
M38L	0.035 ± 0.031
M38Y	-0.094 ± 0.057
M38G	-0.324 ± 0.028
M38S	-0.205 ± 0.034
K65R	-0.012 ± 0.027
K65L	-0.211 ± 0.03
K65I	-0.049 ± 0.048
K65W	-0.439 ± 0.038
K65D	-0.577 ± 0.056
G21F	-0.05 ± 0.052
G21V	-0.219 ± 0.031
G21L	-0.1 ± 0.029
G21S	-0.033 ± 0.03
E66W	-0.167 ± 0.032
E66M	-0.08 ± 0.036

Variant	abundance fitness
E66D	-0.002 ± 0.037
E66G	-0.046 ± 0.027
E66T	-0.03 ± 0.034
E66K	-0.007 ± 0.032
E66R	-0.081 ± 0.026
Q62T	-0.011 ± 0.035
Q62A	0.007 ± 0.03
Q62V	-0.049 ± 0.03
G15T	-0.093 ± 0.036
G15V	-0.026 ± 0.03
D57G	-0.218 ± 0.027
D57T	-0.028 ± 0.035
D57H	-0.022 ± 0.049
G19Q	-0.363 ± 0.043
G19A	-0.339 ± 0.033
G19E	-0.297 ± 0.036
G19N	-0.278 ± 0.059
G19Y	-0.685 ± 0.085
V34I	-0.432 ± 0.061
V34T	-0.232 ± 0.04
V34A	-0.153 ± 0.033

Variant	abundance fitness
E30R	0.01 ± 0.027
E30T	-0.071 ± 0.038
I9V	0.009 ± 0.029
G56C	-1.08 ± 0.12
G56K	-0.942 ± 0.07
D74C	-0.128 ± 0.059
D74F	-0.311 ± 0.063
D74Q	-0.059 ± 0.061
G42E	0.007 ± 0.033
G42K	0.049 ± 0.04
G42Q	-0.029 ± 0.042
A14D	-0.109 ± 0.05
A14Q	0.028 ± 0.038
A14C	0.031 ± 0.044
A14T	0.035 ± 0.035
A14R	0.001 ± 0.028
A14K	-0.065 ± 0.047
L28N	-0.415 ± 0.057
L28D	-0.692 ± 0.061
L28A	-0.467 ± 0.037
